Reference: patent publication US12371675B2, “Process and microorganism for synthesis of adipic acid from carboxylic acids” (THE GOVERNING COUNCIL OF THE UNIVERSITY OF TORONTO, priority 2015, dated 2025)

How the values were obtained:
[1] = Whole-cell biotransformation with E. coli strains over-expressing OYEs; assay type: cell-based; settings: E. coli over-expressing OYE
[2] = OYE hydrogenation activity screen, NADPH oxidation at 340 nm; assay type: biochemical; settings: 1 mM substrate, 0.25 mM NADPH, 2.5 μg protein; cut-off 0.05 U/mg protein; ND = not detected
Experimental: 25 putative OYE genes (Table 1) were cloned based on the Pfam domain of the FMN oxidoreductase family PF00724. Purified OYEs were screened for hydrogenation activity against acrolein, 2-cyclohexn-1-one, cis,cis-muconic acid, trans,trans-muconic acid, and 2-hexendioic acid. Substrate specificity was measured spectrophotometrically in 96-well plates by following incubation for 20 min at room temperature in the anaerobic chamber. Buffers and reagents were also degassed and sparged with Ar. Reaction mixtures contained potassium phosphate (50 mM and pH 7.0), NaCl (10 mM), NADPH (0.25 mM), various substrates (1 mM) and protein (2.5 μg) in a final volume of 200 μL. Enzyme reactions were monitored by following the decrease in absorbance at 340 nm (ε340 nm=6,200/M·cm) as a measure of the conversion of the cofactor NADPH to NADP+.

[3] = Whole-cell anaerobic biotransformation by E. coli expressing EREDs; assay type: cell-based; settings: 20 mM 2-hexenedioic acid
[4] = In vitro biotransformation by CARs coupled with aldehyde reductase PP_3370; assay type: biochemical; settings: Table 12 title: 10 mM 4-hydroxybutyric acid (12 h) in vitro, CARs coupled with PP3370
[5] = as above; assay type: biochemical; settings: Table 12 title: 10 mM adipic acid (12 h) in vitro, CARs coupled with PP3370
[6] = CAR reductase activity, NADPH oxidation at 340 nm; assay type: biochemical; settings: ND = no activity was detected
Experimental: Reductase activity was measured spectrophotometrically by following the oxidation of NADPH depletion at 340 nm.
It has been shown that the N. iowensis CAR has a broad substrate range, though its maximal activity was usually observed with aromatic substrates such as benzoic and cinnamic acids. CARs gene sequences homologues to the N. iowensis CAR (Uniprot number: Q6RKB1), were selected from GenBank database. Based on presence of adenylation (AMP-binding PF00501) and reduction (NAD-binding PF07993) domains accompanied with phosphopantetheinyl binding motif (PF00530) 13 CAR genes (mostly from Mycobacterium) were cloned and expressed in E. coli. (Table 4). As CAR activation enzymes, phosphopantetheinyl transferases (PPTs) from E. coli (P19925) and Bacillus subtilis (P39135), were used which were co-expressed with the selected CAR genes from a separate plasmid. Using 1-liter E. coli cultures with overnight induction by IPTG, 12 soluble CAR proteins were purified using affinity chromatography on a Ni-NTA resin.

[7] = In vivo whole cell biotransformation by E. coli expressing CARs; assay type: cell-based; settings: 24 h
Experimental: E. coli cells expressing recombinant CARs with BSU03570 phosphopantetheinyl transferase were grown on LB media with […], supplemented with 2% glycerol aerobically on 37° C., until the culture optical density (OD 600 nm) reached 0.6-0.8. At this point protein expression was induced with 0.4 mM IPTG and substrate (adipic acid or 4-hydroxybutyric acid) for final 10 mM concentration was added. Samples were taken at 6 h, 24 h and 48 h, centrifuged, supernatant was filtered through 10 kDa centrifugal filters. Products were analyzed with HPLC or LC-MS. Negative control experiments were performed using E. coli cells harboring empty plasmids. All results of in vivo experiments are means from at least two independent determinations.

B1: EC5625: OYE protein from Escherichia coli K12 (protein)
chain: MSSEKLYSPLKVGAITAANRIFMAPLTRLRSIEPGDIPTPLMAEYYRQRASAGLIISEATQISAQAKGYAGAPGIHSPEQIAAWKKITAGVHAENGHMAVQLWHTGRISHASLQPGGQAPVAPSALSAGTRTSLRDENGQAIRVETSMPRALELEEIPGIVNDFRQAIANAREAGFDLVELHSAHGYLLHQFLSPSSNHRTDQYGGSVENRARLVLEVVDAGIEEWGADRIGIRVSPIGTFQNTDNGPNEEADALYLIEQLGKRGIAYLHMSEPDWAGGEPYTDAFREKVRARFHGPIIGAGAYTVEKAETLIGKGLIDAVAFGRDWIANPDLVARLQRKAELNPQRAESFYGGGAEGYTDYPTL
hydrogenation of 2-hexenedioic acid into adipic acid [1]: no hydrogenation | Activity [U/mg protein] 2-cyclohexen-1-one [2]: 0.18 U/mg protein

B2: YST4373: OYE protein from Saccharomyces cerevisiae (protein)
chain: MPFVKDFKPQALGDTNLFKPIKIGNNELLHRAVIPPLTRMRAQHPGNIPNRDWAVEYYAQRAQRPGTLIITEGTFPSPQSGGYDNAPGIWSEEQIKEWTKIFKAIHENKSFAWVQLWVLGWAAFPDTLARDGLRYDSASDNVYMNAEQEEKAKKANNPQHSITKDEIKQYVKEYVQAAKNSIAAGADGVEIHSANGYLLNQFLDPHSNNRTDEYGGSIENRARFTLEVVDAVVDAIGPEKVGLRLSPYGVFNSMSGGAETGIVAQYAYVLGELERRAKAGKRLAFVHLVEPRVTNPFLTEGEGEYNGGSNKFAYSIWKGPIIRAGNFALHPEVVREEVKDPRTLIGYGRFFISNPDLVDRLEKGLPLNKYDRDTFYKMSAEGYIDYPTYEEALKLGWDKN
hydrogenation of 2-hexenedioic acid into adipic acid [1]: no hydrogenation | Activity [U/mg protein] 2-cyclohexen-1-one [2]: 0.23 U/mg protein | Activity [U/mg protein] acrolein [2]: 0.17 U/mg protein

B3: BSU2381: OYE protein from Bacillus subtilis subsp. subtilis str. 168 (protein)
chain: MARKLFTPITIKDMTLKNRIVMSPMCMYSSHEKDGKLTPFHMAHYISRAIGQVGLIIVEASAVNPQGRITDQDLGIWSDEHIEGFAKLTEQVKEQGSKIGIQLAHAGRKAELEGDIFAPSAIAFDEQSATPVEMSAEKVKETVQEFKQAAARAKEAGFDVIEIHAAHGYLIHEFLSPLSNHRTDEYGGSPENRYRFLREIIDEVKQVWDGPLFVRVSASDYTDKGLDIADHIGFAKWMKEQGVDLIDCSSGALVHADINVFPGYQVSFAEKIREQADMATGAVGMITDGSMAEEILQNGRADLIFIGRELLRDPFFARTAAKQLNTEIPAPVQYERGW
hydrogenation of 2-hexenedioic acid into adipic acid [1]: no hydrogenation | Activity [U/mg protein] 2-cyclohexen-1-one [2]: 0.21 U/mg protein

B4: EREDCT: 2-enoate reductase (ERED) from Clostridium tyrobutyricum (protein)
chain: MKNKSLFEPIKIGKVEVKNKISMAPMGAFGLVDNEGCYNQRAVDYYVERAKGGTGLIITSITKVENEIDKVVPGVIPIISINPGRFIMTSSEMTERVHSYGSKIFLQLTMGFGRSGAPGTLLTSQPVSASSVPNYWDPTVTCRELTTSEVEWIVAKFIQGAAIAQKAGFDGVEIHAVHEGYLLDQFTLSIFNRRTDKYGGDLRGRLQLPIEIVQGIKAQVGSDFPVGLRYSVKSCIKDWRQGGLPDEDYVEKGRDLKEGLESAKILEAAGYDELNTDVGTYDAWYWSHPPLYQKDGLYLPYTKELKKVVKIPVIVAGKLGVPQEAEKALDEGGADMIGLARPLLSDAYWPKKVLSGHPERIRPCIGCHVGCLGRGFEGKPLSCAVNPAAGRERYYEIRPAAIPKKVLIAGGGVAGMEAARMAVLRGHKVTLYESTDQLGGEIVPGSVPDFKIDDRRLLDWYRNEMKELKINVIFNTEVTDKLVGKEQPDVVIVATGANDVKIKLPGIEKDKVSTAVDILNGAKKSGKNVLIVGGGLVGCETALYLAKAGKKVAIVEAKDKILDAGKPIPHMNKIMLEDLIKKYNIKVITGNSLLEVTGDGAVLIDNKFKQQEVYADTIVISIGFKSNRKLYNKLHGKVTDLYLIGDAYQTANIMDAIWSGNEIGLNC
production of adipic acid [3]: inactivity

B5: MSMEI_5586: carboxylate reductase (CAR) from M. smegmatis ATCC 700084 (protein)
chain: MHQLTVTGMNICEVQRLFPRMTSDVHDATDGVTETALDDEQSTRRIAELYATDPEFAAAAPLPAVVDAAHKPGLRLAEILQTLFTGYGDRPALGYRARELATDEGGRTVTRLLPRFDTLTYAQVWSRVQAVAAALRHNFAQPIYPGDAVATIGFASPDYLTLDLVCAYLGLVSVPLQHNAPVSRLAPILAEVEPRILTVSAEYLDLAVESVRDVNSVSQLVVFDHHPEVDDHRDALARAREQLAGKGIAVTTLDAIADEGAGLPAEPIYTADHDQRLAMILYTSGSTGAPKGAMYTEAMVARLWTMSFITGDPTPVINVNFMPLNHLGGRIPISTAVQNGGTSYFVPESDMSTLFEDLALVRPTELGLVPRVADMLYQHHLATVDRLVTQGADELTAEKQAGAELREQVLGGRVITGFVSTAPLAAEMRAFLDITLGAHIVDGYGLTETGAVTRDGVIVRPPVIDYKLIDVPELGYFSTDKPYPRGELLVRSQTLTPGYYKRPEVTASVFDRDGYYHTGDVMAETAPDHLVYVDRRNNVLKLAQGEFVAVANLEAVFSGAALVRQIFVYGNSERSFLLAVVVPTPEALEQYDPAALKAALADSLQRTARDAELQSYEVPADFIVETEPFSAANGLLSGVGKLLRPNLKDRYGQRLEQMYADIAATQANQLRELRRAAATQPVIDTLTQAAATILGTGSEVASDAHFTDLGGDSLSALTLSNLLSDFFGFEVPVGTIVNPATNLAQLAQHIEAQRTAGDRRPSFTTVHGADATEIRASELTLDKFIDAETLRAAPGLPKVTTEPRTVLLSGANGWLGRFLTLQWLERLAPVGGTLITIVRGRDDAAARARLTQAYDTDPELSRRFAELADRHLRVVAGDIGDPNLGLTPEIWHRLAAEVDLVVHPAALVNHVLPYRQLFGPNVVGTAEVIKLALTERIKPVTYLSTVSVAMGIPDFEEDGDIRTVSPVRPLDGGYANGYGNSKWAGEVLLREAHDLCGLPVATFRSDMILAHPRYRGQVNVPDMFTRLLLSLLITGVAPRSFYIGDGERPRAHYPGLTVDFVAEAVTTLGAQQREGYVSYDVMNPHDDGISLDVFVDWLIRAGHPIDRVDDYDDWVRRFETALTALPEKRRAQTVLPLLHAFRAPQAPLRGAPEPTEVFHAAVRTAKVGPGDIPHLDEALIDKYIRDLREFGLI
In vivo conversion efficiency (%) to: 1,4-butanediol [4]: 78.4 ± 6.2% | In vitro conversion efficiency % to: 1,6-hexanediol [5]: 10.2 ± 3.4% | In vitro conversion efficiency % to: 6-hydroxyhexanoic acid [5]: 30.3 ± 0.4% | Activity [U/mg protein] 4-hydroxybutyric acid, 5 mM [6]: 0.058 ± 0.033 U/mg protein | Activity [U/mg protein] adipic acid, 5 mM [6]: 0.017 ± 0.005 U/mg protein | In vivo conversion efficiency (%) to: 1,4-butanediol ([7]; 10 mM 4-hydroxybutyric acid): 78.4 ± 6.2% | In vivo conversion efficiency (%) to: 1,6-hexanediol ([7]; 10 mM adipic acid): 10.2 ± 3.4% | In vivo conversion efficiency (%) to: 6-hydroxyhexanoic acid ([7]; 10 mM adipic acid): 30.3 ± 0.4%
